Experimental findings from US20140017255A1 (E R SQUIBB AND SONS L L C, published 2014) are described below.

Assay [1] deals with T1, human BTLA expressed on CHO cells (human, UniProt Q7Z6A9 31-289).
T1 construct: also called CHO/huBTLA; hBTLA
The experiment in a line: flow cytometry, antibody titrated on CHO cells expressing human BTLA, PE-anti-huFc detection, FL2 GMFI.

Assay [2] has as its target T2, cynomolgus BTLA (cynomolgus, UniProt A0A2K5W7M7 31-289).
T2 construct: whole, on cells; also called cyno BTLA; monkey BTLA
T2 sequence: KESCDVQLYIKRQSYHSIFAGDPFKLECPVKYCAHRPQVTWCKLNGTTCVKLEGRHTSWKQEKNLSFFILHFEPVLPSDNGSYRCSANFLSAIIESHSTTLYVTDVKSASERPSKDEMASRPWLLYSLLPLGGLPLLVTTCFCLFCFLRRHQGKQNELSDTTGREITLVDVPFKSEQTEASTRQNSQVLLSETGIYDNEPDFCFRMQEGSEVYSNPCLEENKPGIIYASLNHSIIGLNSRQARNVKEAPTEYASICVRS
The experiment in a line: flow cytometry, antibody titrated on CHO cells expressing cynomolgus BTLA, PE-anti-huFc detection, FL2 GMFI. On the technique in general: In flow cytometry, cells or beads pass a laser one at a time.

T1 sequence (Q7Z6A9 other isoform, or with tags, fused parts or gaps limits assumed): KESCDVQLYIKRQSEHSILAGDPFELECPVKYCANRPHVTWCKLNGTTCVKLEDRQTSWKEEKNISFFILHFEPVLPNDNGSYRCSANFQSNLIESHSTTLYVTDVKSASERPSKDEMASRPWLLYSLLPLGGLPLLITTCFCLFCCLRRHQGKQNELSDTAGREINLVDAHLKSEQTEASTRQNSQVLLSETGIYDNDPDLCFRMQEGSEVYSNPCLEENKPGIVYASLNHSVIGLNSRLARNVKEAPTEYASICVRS

B1: hu Mab8D5 (IgG4 version, fully human monoclonal agonist anti-BTLA antibody) (antibody, V domains shown, not shown: a dimerising Fc or GST)
VH: EVQLVESGGGLVQPGGSLRLSCAASGFTISSYDMHWVRQATGKGLEWVSVIGPAGDTYYPGSVKGRFTISRENAKNSLYLQMNSLRAGDTAVYYCAREGMAAHNYYGMDVWGQGTTVTVSS
VL: not shown
notes: also called hu Mab8D5 G4; 8D5 (G4) agonist
One may read the EC50 as the midpoint of the concentration-response curve. As to B1, the EC50 was determined as 12.4 nM in assay [1] and 13.6 nM in assay [2].
